B1: scFv; the commonest letter at each place (parent)
chain 1: EVKLDETGGGLVQPGRPMKLSCVASGFTFSDYWMNWVRQSPEKGLEWVAQIRNKPYNYETYYSDSVKGRFTISRDDSKSSVYLQMNNLRVEDMGIYYCTGSYYGMDYWGQGTSVTVS
chain 2: DVVMTQTPLSLPVSLGDQASISCRSSQSLVHSNGNTYLRWYLQKPGQSPKVLIYKVSNRFSGVPDRFSGSGSGTDFTLKISRVEAEDLGVYFCSQSTHVPWTFGGGTKLEIK

Columns and labels:
[1] = variants of: B1; assay: Kd (Tite-Seq); conditions: with fluorescein; format: scFv 4-4-20, heavy + light
[2] = variants of: B1; assay: yeast surface expression (ratio to wild type); higher = more expressed; conditions: format: scFv 4-4-20, heavy + light

| Variant | Kd [1] [nM] | yeast surface expression [2] |
| --- | --- | --- |
| chain 1 EVKLDETGGGLVQPGRPMKLSCVASGFTFSDYWMNWVRQSPEKGLEWVAQIRNKPYNYETYYSDSVKGRFTISRDDSKSSVYLQMNNLRVEDMGIYYCTGSVYGMDYWGQGTSVTVS chain 2 DVVMTQTPLSLPVSLGDQASISCRSSQSLVHSNGNTYLRWYLQKPGQSPKVLIYKVSNRFSGVPDRFSGSGSGTDFTLKISRVEAEDLGVYFCSQSTHVPWTFGGGTKLEIK [chain 1 Y102V] | 10.7 | 0.936 |
| chain 1 EVKLDETGGGLVQPGRPMKLSCVASGFTFSDYWMNWVRQSPEKGLEWVAQIRNKPYNYETYYSDSVKGRFTISRDDSKSSVYLQMNNLRVEDMGIYYCTGSVYGMIYWGQGTSVTVS chain 2 DVVMTQTPLSLPVSLGDQASISCRSSQSLVHSNGNTYLRWYLQKPGQSPKVLIYKVSNRFSGVPDRFSGSGSGTDFTLKISRVEAEDLGVYFCSQSTHVPWTFGGGTKLEIK [chain 1 Y102V D106I] | ≥ 10000 | 0.421 |
| chain 1 EVKLDETGGGLVQPGRPMKLSCVASGFTFSDYWMNWVRQSPEKGLEWVAQIRNKPYNYETYYSDSVKGRFTISRDDSKSSVYLQMNNLRVEDMGIYYCTGSVYGMNYWGQGTSVTVS chain 2 DVVMTQTPLSLPVSLGDQASISCRSSQSLVHSNGNTYLRWYLQKPGQSPKVLIYKVSNRFSGVPDRFSGSGSGTDFTLKISRVEAEDLGVYFCSQSTHVPWTFGGGTKLEIK [chain 1 Y102V D106N] | 2.15 | 0.889 |
| chain 1 EVKLDETGGGLVQPGRPMKLSCVASGFTFSDYWMNWVRQSPEKGLEWVAQIRNKPYNYETYYSDSVKGRFTISRDDSKSSVYLQMNNLRVEDMGIYYCTGSVYKMDYWGQGTSVTVS chain 2 DVVMTQTPLSLPVSLGDQASISCRSSQSLVHSNGNTYLRWYLQKPGQSPKVLIYKVSNRFSGVPDRFSGSGSGTDFTLKISRVEAEDLGVYFCSQSTHVPWTFGGGTKLEIK [chain 1 Y102V G104K] | ≥ 10000 | 0.494 |
| chain 1 EVKLDETGGGLVQPGRPMKLSCVASGFTFSDYWMNWVRQSPEKGLEWVAQIRNKPYNYETYYSDSVKGRFTISRDDSKSSVYLQMNNLRVEDMGIYYCTGSVYNMDYWGQGTSVTVS chain 2 DVVMTQTPLSLPVSLGDQASISCRSSQSLVHSNGNTYLRWYLQKPGQSPKVLIYKVSNRFSGVPDRFSGSGSGTDFTLKISRVEAEDLGVYFCSQSTHVPWTFGGGTKLEIK [chain 1 Y102V G104N] | ≥ 10000 | 0.817 |
| chain 1 EVKLDETGGGLVQPGRPMKLSCVASGFTFSDYWMNWVRQSPEKGLEWVAQIRNKPYNYETYYSDSVKGRFTISRDDSKSSVYLQMNNLRVEDMGIYYCTGSVYGHDYWVQGTSVTVS chain 2 DVVMTQTPLSLPVSLGDQASISCRSSQSLVHSNGNTYLRWYLQKPGQSPKVLIYKVSNRFSGVPDRFSGSGSGTDFTLKISRVEAEDLGVYFCSQSTHVPWTFGGGTKLEIK [chain 1 Y102V M105H G109V] | ≥ 10000 | 0.276 |
| chain 1 EVKLDETGGGLVQPGRPMKLSCVASGFTFSDYWMNWVRQSPEKGLEWVAQIRNKPYNYETYYSDSVKGRFTISRDDSKSSVYLQMNNLRVEDMGIYYCTGSVYGNDYWGQGTSVTVS chain 2 DVVMTQTPLSLPVSLGDQASISCRSSQSLVHSNGNTYLRWYLQKPGQSPKVLIYKVSNRFSGVPDRFSGSGSGTDFTLKISRVEAEDLGVYFCSQSTHVPWTFGGGTKLEIK [chain 1 Y102V M105N] | 522 | 1.01 |
| chain 1 EVKLDETGGGLVQPGRPMKLSCVASGFTFSDYWMNWVRQSPEKGLEWVAQIRNKPYNYETYYSDSVKGRFTISRDDSKSSVYLQMNNLRVEDMGIYYCTGSVYGQDYWGQGTSVTVS chain 2 DVVMTQTPLSLPVSLGDQASISCRSSQSLVHSNGNTYLRWYLQKPGQSPKVLIYKVSNRFSGVPDRFSGSGSGTDFTLKISRVEAEDLGVYFCSQSTHVPWTFGGGTKLEIK [chain 1 Y102V M105Q] | 1630 | 0.736 |
| chain 1 EVKLDETGGGLVQPGRPMKLSCVASGFTFSDYWMNWVRQSPEKGLEWVAQIRNKPYNYETYYSDSVKGRFTISRDDSKSSVYLQMNNLRVEDMGIYYCTGSVYGMDYAGQGTSVTVS chain 2 DVVMTQTPLSLPVSLGDQASISCRSSQSLVHSNGNTYLRWYLQKPGQSPKVLIYKVSNRFSGVPDRFSGSGSGTDFTLKISRVEAEDLGVYFCSQSTHVPWTFGGGTKLEIK [chain 1 Y102V W108A] | 21 | 0.315 |
| chain 1 EVKLDETGGGLVQPGRPMKLSCVASGFTFSDYWMNWVRQSPEKGLEWVAQIRNKPYNYETYYSDSVKGRFTISRDDSKSSVYLQMNNLRVEDMGIYYCTGSVYGMDYGGQGTSVTVS chain 2 DVVMTQTPLSLPVSLGDQASISCRSSQSLVHSNGNTYLRWYLQKPGQSPKVLIYKVSNRFSGVPDRFSGSGSGTDFTLKISRVEAEDLGVYFCSQSTHVPWTFGGGTKLEIK [chain 1 Y102V W108G] | ≥ 10000 | 0.298 |
| chain 1 EVKLDETGGGLVQPGRPMKLSCVASGFTFSDYWMNWVRQSPEKGLEWVAQIRNKPYNYETYYSDSVKGRFTISRDDSKSSVYLQMNNLRVEDMGIYYCTGSVYGMDYYGQGTSVTVS chain 2 DVVMTQTPLSLPVSLGDQASISCRSSQSLVHSNGNTYLRWYLQKPGQSPKVLIYKVSNRFSGVPDRFSGSGSGTDFTLKISRVEAEDLGVYFCSQSTHVPWTFGGGTKLEIK [chain 1 Y102V W108Y] | 0.504 | 0.855 |
| chain 1 EVKLDETGGGLVQPGRPMKLSCVASGFTFSDYWMNWVRQSPEKGLEWVAQIRNKPYNYETYYSDSVKGRFTISRDDSKSSVYLQMNNLRVEDMGIYYCTGSVCGMDYWGQGTSVTVS chain 2 DVVMTQTPLSLPVSLGDQASISCRSSQSLVHSNGNTYLRWYLQKPGQSPKVLIYKVSNRFSGVPDRFSGSGSGTDFTLKISRVEAEDLGVYFCSQSTHVPWTFGGGTKLEIK [chain 1 Y102V Y103C] | ≥ 10000 | 0.798 |

From the FLAb antibody collection (doi:10.7554/elife.23156)
